dH data for 1 molecule are collected here from article PMC9638894, “Anti-CRISPR proteins function through thermodynamic tuning and allosteric regulation of CRISPR RNA-guided surveillance complex” (Nucleic Acids Research, 2022).

The target of this test is T1, type IF CRISPR RNA guided surveillance complex (Csy) (UniProt Q02MM2 1-187).
T1 construct: Cas8f subunit (tail) of the type IF Csy complex; Csy1); Cas5 subunit (tail) of the type IF Csy complex; Csy2); Cas7 subunit (backbone, six copies Cas7.1f-Cas7.6f) of the type IF Csy complex; Csy3); Cas6f subunit (head) of the type IF Csy complex; Csy4); Ribonucleoprotein: also holds one crRNA (synthetic CRISPR, Addgene 89244); Purified on Ni-NTA, so one subunit carries a His tag; also called Csy …
The experiment in a line: ITC; AcrIF9 or AcrIF2 binding to the Csy complex; conditions not told in the text shown (Supplemental Figure S8). The following applies: both partners purified. For orientation: In ITC the heat of successive injections is recorded.

B1: AcrIF9 (natural protein)
chain: MKAAYIIKEVQNINSEREGTQIEATSLSQAKRIASKEQCFHGTVMRIETVNGLWLAYKEDGKRWVDCQ
On to B1, for which the dH was more than 0.
